Experimental data from patent publication US20240117074A1 (published 2024).
Positions count from the first letter of the chain named.

Key:
[1] = molecular target: T1, human CEACAM5, recombinant soluble (hCEACAM-5, R&D Systems #4128-CM-050) (human, UniProt P06731 35-685); test: dual target ELISA: CEACAM5 coated, biotinylated hCD40-muIg detection
T1 construct: Bought protein; also called Human CEACAM5-His; monomeric human CEACAM5-His
T1 sequence (looked up): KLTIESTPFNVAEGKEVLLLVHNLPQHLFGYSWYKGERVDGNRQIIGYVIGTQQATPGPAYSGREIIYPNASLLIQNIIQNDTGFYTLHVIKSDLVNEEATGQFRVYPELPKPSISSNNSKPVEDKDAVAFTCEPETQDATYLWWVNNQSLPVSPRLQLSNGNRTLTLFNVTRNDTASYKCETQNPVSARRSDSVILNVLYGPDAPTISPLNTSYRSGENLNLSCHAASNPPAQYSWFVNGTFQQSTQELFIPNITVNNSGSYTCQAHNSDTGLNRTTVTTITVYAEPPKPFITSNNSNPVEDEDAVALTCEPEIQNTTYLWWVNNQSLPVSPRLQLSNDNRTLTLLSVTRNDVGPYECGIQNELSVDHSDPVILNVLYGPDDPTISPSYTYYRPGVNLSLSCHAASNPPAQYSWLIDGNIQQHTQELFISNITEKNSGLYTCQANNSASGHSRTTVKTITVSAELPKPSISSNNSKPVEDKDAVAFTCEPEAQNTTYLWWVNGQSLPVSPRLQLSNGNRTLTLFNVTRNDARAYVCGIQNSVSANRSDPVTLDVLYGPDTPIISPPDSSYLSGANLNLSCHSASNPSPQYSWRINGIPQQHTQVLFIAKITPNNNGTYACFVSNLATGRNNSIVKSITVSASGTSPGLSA
Procedure: ELISA plates were coated with human EpCAM, bsAb was added followed by detection using goat anti human-kappa light chain-HRP.
96-well plates were coated with 0.5 μg/mL antigen, hCEACAM-1 (2244-CM-050, R&D Systems), hCEACAM-5 (4128-CM-050, R&D Systems), hCEACAM-6 (3934-CM-050, R&D Systems) or CEACAM-8 (9639-CM-050, R&D Systems) in PBS over night at 4° C. After washing in PBS/0.05% Tween 20 (PBST), the plates were blocked with PBST, 2% BSA for at least 30 minutes at room temperature before a second round of washing. RUBY bsAbs, diluted in PBST, 0.5% BSA, were then added and allowed to bind for at least 1 hour at room temperature. […] Finally, a final round of washing was performed and bound complexes detected using SuperSignal Pico Luminescent as substrate and luminescence signals were measured using Fluostar Optima.

[2] = molecular target: T1, human CEACAM5, recombinant soluble …; test: Octet BLI, captured bsAb, soluble antigen
[3] = molecular target: T1, human CEACAM5, recombinant soluble …; test: Octet BLI, captured bsAb, monomeric CEACAM5 in solution
[4] = molecular target: CD40 expressed on cells (CD40 reporter cells, HEK Blue CD40L cells, primary B cells, tumor APCs) (human, UniProt P25942 21-277); test: cell-based or functional assay
[5] = molecular target: T2, monomeric Cynomolgus CEACAM5-His (Sino Biological #90891-C08H) (cynomolgus); test: Octet BLI, captured bsAb, soluble antigen
T2 chain: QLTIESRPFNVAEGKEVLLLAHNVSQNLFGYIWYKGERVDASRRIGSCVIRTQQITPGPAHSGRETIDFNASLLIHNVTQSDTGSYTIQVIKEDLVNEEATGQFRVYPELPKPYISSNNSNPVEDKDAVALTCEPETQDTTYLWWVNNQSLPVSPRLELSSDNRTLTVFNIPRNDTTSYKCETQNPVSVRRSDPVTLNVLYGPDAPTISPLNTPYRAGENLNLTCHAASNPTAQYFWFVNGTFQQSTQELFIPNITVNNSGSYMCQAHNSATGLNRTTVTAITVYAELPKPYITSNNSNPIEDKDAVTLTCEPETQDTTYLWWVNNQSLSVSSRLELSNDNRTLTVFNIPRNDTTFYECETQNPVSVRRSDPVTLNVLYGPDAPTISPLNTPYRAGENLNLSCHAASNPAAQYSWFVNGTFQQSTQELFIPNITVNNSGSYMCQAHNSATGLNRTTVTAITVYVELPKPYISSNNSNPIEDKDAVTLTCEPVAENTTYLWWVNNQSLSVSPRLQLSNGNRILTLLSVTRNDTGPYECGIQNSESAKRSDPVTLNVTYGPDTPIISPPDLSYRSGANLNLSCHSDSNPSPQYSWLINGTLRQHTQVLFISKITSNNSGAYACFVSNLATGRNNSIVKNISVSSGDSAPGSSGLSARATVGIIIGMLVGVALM

[6] = molecular target: T3, biotinylated human CD40-mouse Fc (Ancell #504-030) (human, UniProt P25942 21-193, biotinylated); test: Octet BLI, captured CD40mFc-biotin, bsAb in solution
T3 construct: Bought fusion protein; also called hCD40-muIg; CD40mFc-biotin; not shown: mouse Ig Fc of the bought fusion protein
T3 sequence (P25942 21-193): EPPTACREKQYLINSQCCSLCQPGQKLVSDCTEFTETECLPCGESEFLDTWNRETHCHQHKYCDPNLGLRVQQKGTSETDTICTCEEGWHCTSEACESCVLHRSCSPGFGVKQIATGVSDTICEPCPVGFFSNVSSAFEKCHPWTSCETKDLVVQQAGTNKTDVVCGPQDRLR

CD40 expressed on cells (CD40 reporter cells, HEK Blue CD40L cells, primary B cells, tumor APCs), sequence (P25942 21-277): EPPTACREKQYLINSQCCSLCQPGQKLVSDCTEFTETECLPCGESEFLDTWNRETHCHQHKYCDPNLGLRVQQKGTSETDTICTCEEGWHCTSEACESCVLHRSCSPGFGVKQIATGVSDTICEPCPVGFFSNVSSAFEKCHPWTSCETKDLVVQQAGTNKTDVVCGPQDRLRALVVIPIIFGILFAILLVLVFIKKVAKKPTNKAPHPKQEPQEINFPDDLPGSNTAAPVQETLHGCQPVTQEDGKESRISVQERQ

B1: Multi39 (bispecific antibody)
heavy 1: not shown
light: not shown
heavy 2: EVQLLESGGGLVQPGGSLRLSCAASGFTFYDHAMSWVREAPGKGLEWVSAISGSYGSTGYADSVKGRFTISRDNSKNTLYLQMNSLRAEDTAVYYCARWGGWAGDIDYWGQGTLVTVSSASTKGPSVFPLAPSSKSTSGGTAALGCLVKDYFPEPVTVSWNSGALTSGVHTFPAVLQSSGLYSLTSVVEVPSSSLGTQTYICNVNHKPSNTKVDKKVEPKSC
notes: copies: 2 + 2 + 2
binding result [1]: binds

B2: AC_05339 (bispecific antibody)
chain 1: not shown
chain 2: DIQMTQSPSSLSASVGDRVTITCRASQSISSYLNWYQEKPGKAPKLLIYAASSLQSGVPSRFSGSGSGTDFTLTISSLQPEDFATYYCQQAGNPHTFGQGTKLEIKRTVAAPSVFIFPPSDEQLKSGTASVVCYLNNFYPREAKVQWKVDNALQSGNSQESVTEQDSKDSTYSLWSTLTLSKADYEKHKVYACEVTHQGLSSPVTKSFNRGEC
chain 3: EVQLLESGGGLVQPGGSLRLSCAASGFTFSTYGMHWVREAPGKGLEWLSYISGGSSYIFYADSVKGRFTISRDNSKNTLYLQMNSLRAEDTAVYYCARILRGGSGMDLWGQGTLVTVSSASTKGPSVFPLAPSSKSTSGGTAALGCLVKDYFPEPVTVSWNSGALTSGVHTFPAVLQSSGLYSLTSVVEVPSSSLGTQTYICNVNHKPSNTKVDKKVEPKSC
Kd [2]: < 1 pM | koff [2]: < 1e-07 s⁻¹ | kon [2]: 520000 M⁻¹ s⁻¹ | Kd [3]: 1800 pM | koff [3]: 0.00042 s⁻¹ | kon [3]: 240000 M⁻¹ s⁻¹ | EC50 of HEK Blue CD40L reporter activation (SEAP), CHO-CEACAM5 crosslinking, 0 Raji sink cells/well [4]: 30 pM | EC50 of HEK Blue CD40L reporter activation (SEAP), CHO-CEACAM5 crosslinking, 10 000 Raji sink cells/well [4]: 50 pM | EC50 of HEK Blue CD40L reporter activation (SEAP), CHO-CEACAM5 crosslinking, 30 000 Raji sink cells/well [4]: 80 pM | EC50 of HEK Blue CD40L reporter activation (SEAP), CHO-CEACAM5 crosslinking, 90 000 Raji sink cells/well [4]: 230 pM

B3: AC_05355 (bispecific antibody)
chain 1: not shown
chain 2: DIQMTQSPSSLSASVGDRVTITCRASENIFSYLAWYQEKPGKAPKLLIYNTRTLQSGVPSRFSGSGSGTDFTLTISSLQPEDFATYYCQHHYGTPFTFGQGTKLEIKRTVAAPSVFIFPPSDEQLKSGTASVVCYLNNFYPREAKVQWKVDNALQSGNSQESVTEQDSKDSTYSLWSTLTLSKADYEKHKVYACEVTHQGLSSPVTKSFNRGEC
chain 3: B2 chain 3
Kd [2]: 1000 pM | koff [2]: 0.00053 s⁻¹ | kon [2]: 510000 M⁻¹ s⁻¹ | Kd [5]: 20000 pM | koff [5]: 0.0038 s⁻¹ | kon [5]: 190000 M⁻¹ s⁻¹

B4: AC_05293 (bispecific antibody)
chain 1: EVQLLESGGGLVQPGGSLRLSCAASGFTFSSYAMSWVRQAPGKGLEWVSGIGSYGGGTYYADSVKGRFTISRDNSKNTLYLQMNSLRAEDTAVYYCARYVNFGMDYWGQGTLVTVSS
chain 2: DIQMTQSPSSLSASVGDRVTITCRASQSISSYLNWYQQKPGKAPKLLIYAASSLQSGVPSRFSGSGSGTDFTLTISSLQPEDFATYYCQQYGRNPPTFGQGTKLEIK
chain 3: EVQLLEQSGAELVRPGTSVKISCKASGYAFTNYWLGWVKQRPGHGLEWIGDIFPGSGNIHYNEKFKGKATLTADKSSSTAYMQLSSLTFEDSAVYFCARLRNWDEPMDYWGQGTTVTVSS
chain 4: ELVMTQSPSSLTVTAGEKVTMSCKSSQSLLNSGNQKNYLTWYQQKPGQPPKLLIYWASTRESGVPDRFTGSGSGTDFTLTISSVQAEDLAVYYCQNDYSYPLTFGAGTKLEIK
Kd [6]: 76000 pM | koff [6]: 0.00062 s⁻¹ | kon [6]: 8300 M⁻¹ s⁻¹

B5: AC_05330 (bispecific antibody)
chain 1: EVQLLESGGGLVQPGGSLRLSCAASGFTFSTYGMHWVRQAPGKGLEWLSYISGGSSYIFYADSVRGRFTISRDNSENALYLQMNSLRAEDTAVYYCARILRGGSGMDLWGQGTLVTVSS
chain 2: QSVLTQPPSASGTPGQRVTISCTGSSSNIGAGYNVYWYQQLPGTAPKLLIYGNINRPSGVPDRFSGSKSGTSASLAISGLRSEDEADYYCAAWDKSISGLVFGGGTKLTVLG
chain 3: not shown
chain 4: B4 chain 2 with Y91T, G92Y, R93G, N94Y, P95L, P96H
Kd [6]: 450 pM | koff [6]: 1.6e-05 s⁻¹ | kon [6]: 35000 M⁻¹ s⁻¹

B6: AC_05331 (bispecific antibody)
chain 1: not shown
chain 2: B4 chain 2 with Y91T, G92Y, R93G, N94Y, P95L, P96H
chain 3: B5 chain 1
chain 4: B5 chain 2
Kd [6]: 230 pM | koff [6]: 8.1e-06 s⁻¹ | kon [6]: 36000 M⁻¹ s⁻¹

B7: AC_05300 (bispecific antibody)
chain 1: B4 chain 3
chain 2: B4 chain 4
chain 3: B4 chain 1
chain 4: B4 chain 2
Kd [6]: 8500 pM | koff [6]: 0.0046 s⁻¹ | kon [6]: 540000 M⁻¹ s⁻¹
